Molecular target: T1, Human recombinant toll like receptor 4 (rTLR4) (human, UniProt O00206 24-631)
T1 construct: toll like receptor 4 (TLR4), human, recombinant; No catalogue number or construct limits are printed; a soluble recombinant TLR4 is most likely the extracellular domain (surmised); also called MP-rTLR4; source: bought: R & D Systems
Experiment: pull-down; rTLR4 held by its His tag on Ni-NTA magnetic beads; MD2 (Alexa Fluor 647), CD14 and LPS-Alexa Fluor 488 co-incubated in one tube in PBS pH 7.4 with 0.5% Tween 20 at RT; beads removed by magnet at 15, 30, 45, 60 and 90 min; unbound MD2 in the supernatant quantified by fluorescence, CD14 by silver staining
Conditions: both partners purified

T1 sequence (O00206 24-631): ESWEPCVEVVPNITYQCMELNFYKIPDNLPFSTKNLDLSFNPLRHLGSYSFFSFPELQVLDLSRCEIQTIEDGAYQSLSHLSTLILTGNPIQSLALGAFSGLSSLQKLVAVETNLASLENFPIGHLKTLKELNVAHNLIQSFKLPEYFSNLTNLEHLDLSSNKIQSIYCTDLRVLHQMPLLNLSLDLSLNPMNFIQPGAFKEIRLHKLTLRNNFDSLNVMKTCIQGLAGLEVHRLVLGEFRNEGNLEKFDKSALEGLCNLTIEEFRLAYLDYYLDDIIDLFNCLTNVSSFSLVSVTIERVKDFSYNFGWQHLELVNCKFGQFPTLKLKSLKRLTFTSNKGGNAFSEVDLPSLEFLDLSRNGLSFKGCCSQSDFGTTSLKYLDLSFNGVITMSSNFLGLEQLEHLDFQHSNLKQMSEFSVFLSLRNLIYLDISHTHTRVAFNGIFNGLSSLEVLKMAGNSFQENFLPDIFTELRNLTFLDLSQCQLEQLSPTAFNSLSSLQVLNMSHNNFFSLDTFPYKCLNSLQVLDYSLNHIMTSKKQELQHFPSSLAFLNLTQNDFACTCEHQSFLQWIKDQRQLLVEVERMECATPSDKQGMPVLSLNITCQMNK

stoichiometry N: 1
B1: Recombinant human myeloid differentiation-2 (MD2) protein (natural protein, UniProt Q9Y6Y9 19-160, looked up)
chain: QKQYWVCNSSDASISYTYCDKMQYPISINVNPCIELKRSKGLLHIFYIPRRDLKQLYFNLYITVNTMNLPKRKEVICRGSDDDYSFCRALKGETVNTTISFSFKGIKFSKGKYKCVVEAISGSPEEMLFCLEFVILHQPNSN
modifications: Alexa Fluor 647, on average 3 tags per MD2 molecule
notes: myeloid differentiation-2 (MD2, lymphocyte antigen 96), human, recombinant; No catalogue number is printed; source: bought: Abcam
